# Values joined by “and” are separate entries in the source; they are usually repeats but may differ in a detail not shown here. Identical values can stand only once.
# T1: CAV1 untagged (UniProt Q03135 1-178)
# T1 construct: caveolin-1 (CAV1), untagged; construct cloned as described in Hill et al. (2008); also called caveolin-1; source: MCF-7 cells, transfected, in post nuclear supernatant
# T1 sequence (looked up): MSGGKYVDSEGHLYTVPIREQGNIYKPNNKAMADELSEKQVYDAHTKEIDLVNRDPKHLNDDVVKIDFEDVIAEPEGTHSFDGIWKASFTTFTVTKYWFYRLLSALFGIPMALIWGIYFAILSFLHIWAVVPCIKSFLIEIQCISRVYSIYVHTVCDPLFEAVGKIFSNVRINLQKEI
# T2: CAV1-GFP (UniProt Q03135 1-178)
# T2 construct: caveolin-1 (CAV1); construct cloned as described in Hill et al. (2008); membrane protein, seen on caveolae in the cell extract; also called caveolin-1; Caveolin-1; source: MCF-7 cells, transfected, in post nuclear supernatant
# T2 sequence (looked up): T1 sequence (looked up)
# T3: cavin3-GFP (UniProt Q969G5 1-261)
# T3 construct: construct cloned as described in Hill et al. (2008); The only hint on species is the keyword 'human'; the cDNA may be of mouse (surmise); also called SRBC; source: MCF-7, MDCK or HeLa cells, transfected (Lipofectamine 2000), in supernatant of mechanically lysed cells
# T3 sequence (looked up): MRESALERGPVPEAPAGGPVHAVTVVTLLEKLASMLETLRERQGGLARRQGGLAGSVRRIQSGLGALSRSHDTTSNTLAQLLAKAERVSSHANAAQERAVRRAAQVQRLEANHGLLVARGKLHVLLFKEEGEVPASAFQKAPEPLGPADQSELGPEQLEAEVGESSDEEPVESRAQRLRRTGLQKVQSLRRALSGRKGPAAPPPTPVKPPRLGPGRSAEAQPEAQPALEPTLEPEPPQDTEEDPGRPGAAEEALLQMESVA
# T4: cavin1-GFP (cell-free) (UniProt Q6NZI2 1-390)
# T4 construct: cavin1 / polymerase transcript release factor (PTRF); ORF in a Gateway DNA template for cell-free expression; also called PTRF; source: Leishmania tarentolae cell-free system (LTE), in vitro translated, not purified; not shown: eGFP, N-terminal, kept
# T4 sequence (looked up): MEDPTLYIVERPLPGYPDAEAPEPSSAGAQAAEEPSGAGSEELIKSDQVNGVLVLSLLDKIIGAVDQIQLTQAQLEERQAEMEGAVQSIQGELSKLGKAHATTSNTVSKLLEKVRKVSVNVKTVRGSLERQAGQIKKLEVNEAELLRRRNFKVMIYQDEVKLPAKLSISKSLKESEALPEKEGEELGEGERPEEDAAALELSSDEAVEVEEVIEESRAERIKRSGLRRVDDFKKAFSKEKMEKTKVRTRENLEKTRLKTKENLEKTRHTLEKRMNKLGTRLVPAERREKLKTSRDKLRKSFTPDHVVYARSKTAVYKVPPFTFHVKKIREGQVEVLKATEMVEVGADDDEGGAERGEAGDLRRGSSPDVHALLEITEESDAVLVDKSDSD
# B1: cavin1-GFP (natural protein, UniProt Q6NZI2 1-390, looked up)
# chain: T4 sequence (looked up)
# notes: cavin1 / polymerase transcript release factor (PTRF); construct cloned as described in Hill et al. (2008); The only hint on species is the keyword 'human'; the cDNA may be of mouse (surmise); also called polymerase transcript release factor; PTRF; source: MCF-7 or MDCK cells, transfected (Lipofectamine 2000), in supernatant of mechanically lysed cells
# B2: cavin1-Cherry (natural protein, UniProt Q6NZI2 1-390, looked up)
# chain: T4 sequence (looked up)
# notes: cavin1 / polymerase transcript release factor (PTRF); construct cloned as described in Hill et al. (2008); The only hint on species is the keyword 'human'; the cDNA may be of mouse (surmise); also called PTRF; source: MCF-7 or MDCK cells, transfected (Lipofectamine 2000), in supernatant of mechanically lysed cells
# B3: cavin2-GFP (natural protein, UniProt O95810 1-425, looked up)
# chain: MGEDAAQAEKFQHPGSDMRQEKPSSPSPMPSSTPSPSLNLGNTEEAIRDNSQVNAVTVLTLLDKLVNMLDAVQENQHKMEQRQISLEGSVKGIQNDLTKLSKYQASTSNTVSKLLEKSRKVSAHTRAVKERMDRQCAQVKRLENNHAQLLRRNHFKVLIFQEENEIPASVFVKQPVSGAVEGKEELPDENKSLEETLHTVDLSSDDDLPHDEEALEDSAEEKVEESRAEKIKRSSLKKVDSLKKAFSRQNIEKKMNKLGTKIVSVERREKIKKSLTSNHQKISSGKSSPFKVSPLTFGRKKVREGESHAENETKSEDLPSSEQMPNDQEEESFAEGHSEASLASALVEGEIAEEAAEKATSRGSNSGMDSNIDLTIVEDEEEESVALEQAQKVRYEGSYALTSEEAERSDGDPVQPAVLQVHQTS
# notes: cavin2 / SDPR (serum deprivation response protein); construct cloned as described in Hill et al. (2008); The only hint on species is the keyword 'human'; the cDNA may be of mouse (surmise); also called SDPR; serum deprivation response protein; source: MCF-7 or MDCK cells, transfected (Lipofectamine 2000), in supernatant of mechanically lysed cells
# B4: cavin3-Cherry-myc (cell-free) (natural protein, UniProt Q969G5 1-261, looked up)
# chain: T3 sequence (looked up)
# notes: cavin3 / SRBC; ORF in a Gateway DNA template for cell-free expression; also called SRBC; cavin3-myc; source: Leishmania tarentolae cell-free system (LTE), in vitro translated, not purified; not shown: mCherry, C-terminal, kept; Myc, C-terminal, kept
# B5: cavin3-Cherry (natural protein, UniProt Q969G5 1-261, looked up)
# chain: T3 sequence (looked up)
# notes: construct cloned as described in Hill et al. (2008); The only hint on species is the keyword 'human'; the cDNA may be of mouse (surmise); also called SRBC; C3-C; source: MCF-7 or MDCK cells, transfected (Lipofectamine 2000), in supernatant of mechanically lysed cells
# Tests used:
# [1] = biological target: the molecule itself; experiment: single-molecule brightness analysis; burst brightness of fluorescent cavins in supernatant of MCF-7 cells without CAV1, calibrated on monomeric GFP (maximum 100 photons)
# [2] = biological target: the molecule itself; experiment: single-molecule brightness analysis; burst brightness in supernatant of MCF-7 cells transfected with CAV1-GFP, or with cavin1-GFP and untagged CAV1; calibrated on a single GFP
# CAV1 untagged = biological target: T1, CAV1 untagged; experiment: as above; details: partners not purified
# cavin1-GFP = biological target: B1; experiment: single-molecule brightness analysis; burst brightness of oligomers in the cytoplasmic fraction of MDCK cells after hypo-osmotic treatment (20 min); details: partners not purified
# CAV1-GFP = biological target: T2, CAV1-GFP; experiment: single-molecule two-colour fluorescence coincidence; MCF-7 cells expressing CAV1-GFP and cavin1-Cherry; caveolae in the post nuclear supernatant; details: partners not purified
# cavin2-GFP = biological target: B3; experiment: single-molecule two-colour fluorescence coincidence; MDCK cells (endogenous cavin1 and CAV1) co-transfected; cytoplasmic fraction after hypo-osmotic treatment (DMEM 1:10 in water, 20 min, 37°C); details: partners not purified
# cavin3-GFP = biological target: T3, cavin3-GFP; experiment: as above; details: partners not purified
# cavin1-GFP (cell-free) = biological target: T4, cavin1-GFP (cell-free); experiment: single-molecule two-colour fluorescence coincidence; co-expression in the Leishmania tarentolae cell-free system at DNA ratios from 100% GFP to 100% Cherry; >1000 bursts for each ratio; details: partners not purified
binder,measurement,setting,value
B1,stoichiometry N,[1],50 ± 5 proteins per complex
same,stoichiometry N,[2],40 to 50 cavin1 per caveola
same,brightness of CAV1-GFP over cavin1-GFP,CAV1 untagged,3.5 fold
B2,stoichiometry N,cavin1-GFP,9 cavin1 proteins per oligomer and 8 cavin1 proteins per oligomer to 10 cavin1 proteins per oligomer (2×)
same,stoichiometry N,CAV1-GFP,3 CAV1 per cavin1 and 4 CAV1 per cavin1
same,stoichiometry N,cavin2-GFP,2 cavin1 per cavin2
same,stoichiometry N,cavin3-GFP,~2 cavin1 per cavin3
B3,stoichiometry N,[1],~50 monomers
B4,stoichiometry N,cavin1-GFP (cell-free),3 cavin1 per cavin3
B5,stoichiometry N,[1],~50 monomers

# Reference: article PMC3903133, “Single-molecule analysis reveals self assembly and nanoscale segregation of two distinct cavin subcomplexes on caveolae” (eLife, 2014)
